Experimental data from publication PMC8797470, “Disruption of the pentraxin 3/CD44 interaction as an efficient therapy for triple‐negative breast cancers” (Clinical and Translational Medicine, 2022).

What was measured:
[1] = target: T1, CD44 (Homo sapiens, UniProt P16070); assay: Ligand binding ELISA on immobilised CD44; details: HRP-conjugated recombinant proteins; wells coated with 10 μg/ml CD44; 2 h; OD 450 nm
T1 construct: purchased Sino Biological Inc. 12211-H08H
Method: Plate wells (9018; Corning Costar) were coated with 10 μg/ml of CD44 (12211‐H08H; Sino Biological Inc.) in PBS (pH 7.2) and then blocking for 1 h with the blocking buffer including 3% milk in PBS. For the stability binding experiments, the PTX3‐devired biotinylated peptides were pre‐incubated in serum for 1, 2, 4 or 6 h. For the binding experiments, the horseradish peroxidase (HRP)‐conjugated recombinant PTX3, PTX3/N, PTX3/C and PTX3NA or PTX3‐devired biotinylated peptides AD9, GR9, P2rdAD9 and P12rdGR9 (32310; LEADGENE) was responded in the well for 2 h. For the peptide of competition experiments, the PTX3‐devired biotinylated peptides RI37 and GI40 were diluted at the indicated concentration in PBS. After 2 h, PBS washed three times and then incubated with 5 μg/ml HRP‐conjugated PTX3 in PBS for 1 h at room temperature (RT). For the antibody competition experiments, Ab‐10 and Ab‐49 were incubated with 5 μg/ml HRP‐conjugated PTX3 in PBS for 2 h at RT. After incubation, the mixtures was responded in the well for 1 h at RT and then PBS washed three times, tetramethyl benzidine (TMB) was used to detect the bound HRP conjugate. After 15 min, the peroxidase reaction was stopped by adding 0.1 M H2SO4. Next, ELISA plate reader was used to detect the optical densities at 450 nm.

[2] = tested on: MDA-MB-231 cells; assay: Transwell migration and Matrigel invasion assays; format: cell-based, human; details: treatment in lower well, 18 h
Text: In migration assay, MDA‐MB‐231 cells seeded in 8.0 μm pore polycarbonate membrane inserts (BD Biosciences) in 24‐well plates. In Matrigel invasion assay, inserts were pre‐coated with an appropriate amount of Matrigel first, and the same number of cells seeded on the Matrigel. After cells adhered on the inserts, serum‐free DMEM medium added in the upper wells. Serum‐free medium containing the treatments of TGF‐β1, PTX3, PTX3NA, PTX3/N, PTX3/C, RI37, GI40, AD9, GR9, IgG1κ, PTX3 Ab‐10 or PTX3 Ab‐49 were then mixed into the lower wells of the 24‐well plates. After incubating for 18 h, cells outside the insert were removed by wiping. The inside the inserts were then stained by 4′,6‐diamidino‐2‐phenylindol (DAPI). Fluorescence microscope was used for counting the total number of migrated cells with 200× magnification. Different from the experimental design for the MDA‐MB‐231 cells, the migrated 4T1‐Luc2 cells in the inside of the insert were detected by luciferase activity.

T1 sequence (P16070 21-220 limits assumed): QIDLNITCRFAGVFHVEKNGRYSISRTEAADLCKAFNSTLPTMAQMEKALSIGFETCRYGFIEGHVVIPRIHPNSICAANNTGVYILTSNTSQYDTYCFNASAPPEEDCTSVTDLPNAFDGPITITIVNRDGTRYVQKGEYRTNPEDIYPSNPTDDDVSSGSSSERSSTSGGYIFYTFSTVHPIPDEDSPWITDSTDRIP

B1: PTX3/C: recombinant truncated mutant, C‐terminus of PTX3, amino acids 180–381 (protein)
chain: ETAILFPMRSKKIFGSVHPVRPMRLESFSACIWVKATDVLNKTILFSYGTKRNPYEIQLYLSYQSIVFVVGGEENKLVAEAMVSLGRWTHLCGTWNSEEGLTSLWVNGELAATTVEMATGHIVPEGGILQIGQEKNGCCVGGGFDETLAFSGRLTGFNIWDSVLSNEEIRETGGAESCHIRGNIVGWGVTEIQPHGGAQYVS
modifications: left off: HRP conjugate, end not stated, kept
B1 was tested, and the “binding to immobilised CD44” value [1] was “could bind” and the “migration and invasion, protein alone” value [2] was “mimics PTX3 to induce”.
